Assay results published in the DeepSol protein solubility set.

Test: soluble on expression in E. coli; label from the status in PepcDB or PDB records

Sequence | soluble on expression in E. coli
MRYFLCPGKTDMRKGMNSLCGVIHNKMGYDVRLGDVFIFINRQRTTMKLLHAEDGDLVLYIKRLEEGTFRLPEYDQQSRSYPMEWRDLVMMVKGINNGSAKRLKRLKALRKSDI | not soluble
MQITTVNVNGIRAAVKQRSDANRGMLPWLEQCGSDVVLLQEVRASEKDSLTALAPALDAGWHYVGAPAAAKGRAGVGILSRQPLRDVQVGLEGFVDSGRYIQATLSDPDTGHDVVVASLYLPSGSADTDKQDEKYRFLDVFGPFLEQAAQDNPHMVVGGDWNICHRMQDLKNWKTNRKKSGFLPDERAFMDSVFGVFPDSESQVSDAGQWAGAVDYTSQQRRTPANDPKWFDVARRLAPEDAAYTWWTYRGQAFDTNAGWRIDYQAATSAMLERATRCWVDKAAAYDLRWSDHSPLTVVYS | soluble
MPTYEELSQAVFEGDEAQVVELTRSLLSGGAEPLEVINKGLIAGMDRVGVLFKNNEMFVPEVLMSANAMNAGVEVVKQSQQAFDMPSVGKIVLGTVKGDLHDIGKNLVAMMLESGGFTVYNLGVDIEPGKFVEAVKKYQPDIVGMSALLTTTMMNMKSTIDALIAAGLRDRVKVIVGGAPLSQDFADEIGADGYAPDAASATELCRQLLE | soluble
MGFGNINFCAVDLGSHKITVAIGQLAENNSIKILGVSQKQSKGIKQGSVINLEIAMETLNAALDEAKSIAGVDVKEVTLGVSAPSISGFNSYGLAAVENGEVSIEDLAMAIKTAKAVPMSADTEMLHVLQRDYIVDGQAGVTEPIGMFAVRLESNVHIIVASSRLLQNVRKCVSNCGYSISNLVVEHLAASSATLTDNEKEMGVCLVNIGADSTSFSVFADGGICYTSSIKTGGASISSDISKVFRLPIEAAESLKLQYGYAASKYLKNPDEKIDIPNSLGNAKKRISLQDLSLVIEARVEEIFESLYRELDQHRLLEVISSGIVFTGGGAKLKGLARLAEDMFKLPVRVGGPIEVSGANEVVHNPSYATVVGLLKYAAENSDTSNQQKIEEDVMEIDENTGKSKKKIISSVKGWFSNNF | not soluble
MGSDKIHHHHHHMLGENIYLQRTQIGMTQENLSDYLHLTKTTISKWENNQAKPDIDYLILMANLFDISLDDLVGYQKTLSDDQRNQLIKDLKIKANVLSERDFFQEVKELSKQFPNDFKTLLIMINMVLSNLTNLNDSEMKEWSLSTLNKIISKTVVESDLQTAIMFKTVVLFHNLEYDEVINLYQNSPYKLGEELLLANSFFAKVDVYRAKQVLQVEIYQQILLVCEYLLSLSTFEVEENKGDIFERLEHMIEAFQLNSLHPNTVIKCYYSLACHYSKSDDDKALGYLKQCFKSLKQLLQRFELHGDTFFYTIDDWLETIPTGIAPPTSQLQVIERVEDLFQNSQFKELSGHKEFQQMIQKLNDLKKDY | not soluble
MDYFPIFCQLQHKACLLVGGGEIAERKARLLLDAGALVTVNACEFTPQFHHWADQGQLSLISGEFVPELLADKWLVIAATDQLSVNALVYQSANQQRIFCNVVDDPKRTSFIMPSIIDRSPIMIAVSSGGKAPVLARLLREKLEALLPQHLGQLAGNLRQRVKQHFTVMTERRRFWEKLLTHDRLAQSLANNDHVQADQHVEQLFSAPLTDRGEVVLVGAGPGDAGLLTLKGLQQIQQADVVVYDRLVSDEVMNLVRRDAERIFVGKQSGHHCVPQEQINQILLQQAQSGKRVVRLKGGDPFIFGRGGEELEELAGYGIPFSVVPGITAASGCSAYSGIPLTHRDHAQSVRLVTGHAKKEGQLDWANLAAEKQTLVFYMGLSQAGEIQQQLIQHGMPATTQVALVENGTSRHQRVVSGELSQLALLSQQVSSPSLIIVGSVVSLREKLNWFSSRHHDDQPKVTECVAHVG | not soluble
MGSDKIHHHHHHMLQLPDSPPRMKTLVSVDESYKLCRHLTAKYAKTFYLGTLLMSPVKRQSIWSIYAWCRRTDELVDGPASAITTPETLDLWEQQLESIFAGRPLENYDVALVDTLQRFPMDIQPFRDMIAGQRMDLYRSRYETFEDLYLYCYRVAGTVGLMSTEVMGVDSTLYTAPWHQNKQPYLPTEEAIALGIANQLTNILRDVGEDAKRGRIYIPLEDLEKFNYTEQDFFKGVVDDRWRALMRFQIERARQFYTTSNQGITYLASDARWPVWAASMLYGQILEVIERNDYDVFSRRAFVPQWKKLRTLPLAWMRSQVL | not soluble
MKVLVTGATSGLGRNAAQWLLEAGHEVYAIGRDQLAGEELRKLGATFIPLDLTMTTMEVCQQWLKTCDVVWHCAAKSAPWGNPQDFHQTNVVVTHKLAQAAGREGVKRFIHISSPAVYFDFRHHHDLPETYRASRFSSHYASSKYAAEQVLHECIAHYPDTTYVILRPRGLFGPHDRVIVPRLLQQLSRDRNVLRLPGGGQAQLDLTFVLNVVHAMMLATDNDGLRSGAIYNITNQEPQRLVTMLDSLLNQQLHINYTLQPVPYSLLSVVAAGMELVASMTQKEPLLTRYSVGAVYFDMTLNSERAINELGYRPRYSMAEGIVLAGEWLSAQRSGQHG | not soluble
GPLGSGTWDCDTCLVQNKPEAVKCVACETPKPG | soluble
MGSDKIHHHHHHMKVKVGVVGATGEVGRTMVKVLEEFNVPVTELRLFASERSVGKEIEFKGEKFKVELLTEESMKWKCDYFLFSAGASVSRKFAPIAAENGVTVIDNSSAFRMEKEIPLVVPEVNAYLLKGYTGIIANPNCSTIQMILSIYKLHEVYGIEEIFVSTYQSVSGAGHKGIEELLAQERGENVMKVFPKPIHRNVIPLIGDIQENLFSQEEMKMVNETRKILNDYSIRVYPTTVRVPVLYGHSEAIMVRLKKPYESLEKVREVIASGEDVVVTDDLITPVDVAGKNETYVCRLRATDERSILFWNVADNIRVGAATNAVRILLKHAEMNGKV | not soluble
MGHHHHHHSHMKPIATVGESYQYPPVNWAALLSPLMRLNFGEEIQQLCLEIMVTQAQSSQNAAALLGLWVTPPLIHSLSLNTKRYLLISAPLWIKHISDEQILGFVENLMVAVFKAASPLGSPELCPSALHGLSQAMKLPSPAHHLWSLLSEATGKIFDLLPNKIRRKDLELYISIAKCLLEMTDDDANRIAQVTKSNIEKAAFVKLYLVSQGRFPLVNLTDMLSVAVQHREKEVLAWMILHSLYQARIVSHANTGVLKRMEWLLELMGYMKCCLPVNILSQYGS | not soluble
MEKELDLSQYSVRTDLAVEAKDIALENQPKPNNQSEIKGVIVKEKEEQGVKISMVEITEEGAEAIGKKKGRYVTLESVGIREQDTEKQEEAMEEVFAKELNFFIKSLNIPDDASCLVVGLGNLSVTPDALGPKAVDNLLITRHLFELQPESVQDGFRPVSAIVPGVMGMTGIETSDIIFGVVKKVNPDFIIAIDALAARSIERVNATIQISDSGIHPGSGVGNKRKEISYETLGIPVIAIGIPTVVDAVSITSDTIDFILKHFGREMKEQGKPSKSLLPSGMTFGEKKKLTEDDLPNEEQRQTYLGMIGTLPDEEKRRLIHEVLAPLGHNLMVTPKEVDMFIEDMANVVAGGLNAALHHEVDQENFGAYTH | soluble
MGNWITSTFLRFDLFQRHQPNRFLEYTRVQHSNQSPAYSVRTAAEIVAHQRMKPNHSNDSDTDFSSDDEGCPKMTPHEEQQMFEREQHIAFSGRCHIGDPESCTQLRNEINSRCGPRPSTSNNMEFILNRDLQKRGTSISNPRTVARVLNSHLPNQKRRVDRVATKSFCTQYIQNGTKIVVASQDEKIRFYQRNPDKSKYRSKYMKSDELRVDQCGWSILDTAISLNGDLIAYGTWKDAVFVGKLDFTERQNITWFPIDLNGEPGRDHCAVFCVKFSDSSEQIVCGTSQYSIHVFDVEQRRRIRTIVNAHEDDVNSVCFADLGSNLIYSAGDDGLVKVWDKRAWSDGDVEPVGVFAGHRDGVTHVDSRQDERYLLSNSKDQTIKVWDLRKFSNMSGVEATRACVQSQHWDYRWQPAPPGLCQPVAGDTSVMTLRGHSVLHTLVRANFSPESTGRRYIYTGCARGEVVVYDIMSGTVSRRLKGHTAVVRECDWHPTENEIVSSAWDGVTTVWTWDERQEGVIAPYDHPNISQFGDEDSCDELFQPVKKQCRRQRKTMSSRGHPCSSSSISQN | not soluble
MTTSHRPQLEARSGAKAAAYTPTGIEHARLLPGHTTLKYRKFKEEENLRANCAQEDRSNDKSLEEAVMNEEKQDVVGSGNLQETRSEKDQKDSLQELLVTQKNKVEDKAELEGNEQLKGGNSSRRSWRKGTAFGRHKVTKETNIKEHATKKSASGYINDMTKSEYHQEFLHKHVR | not soluble
MKRDAKDHARNRLMNFYIKKAPTYSAIVKIEHFENDAPSEAKDFEPLVVYSLNKKKRWEINQEFLDSSSEGDDSKSVIIDREIPDLYFAWWSLGNVHSHDCVNHSKPVNSSQIDNAKKEEKVVGYHIVRVPKNHKKVFDNKCIRYIGLRYPEFLGYSSKDWPALQYEMKELEEEHEELEKENASLEAESTETTKPTGFYNLDEHFVAKKQRKPKGWLTVE | not soluble
QVQLVESGGGSVQAGGSLRLSCAASGFTYSRKYMGWFRQAPGKEREGVAAIFIDNGNTIYADSVQGRFTISQDNAKNTVYLQMNSLKPEDTAMYYCAASSRWMDYSALTAKAYNSWGQGTQVTVSSRGRHHHHHH | soluble
MARKTKPLTDTEIKAAKPKDADYQLYDGDGLTLLIKSSGSKLWQFRYYRPLTKQRTKQSFGAYPAVSLSDARKLRAESKVLLAKDIDPQEHQKEQVRNSQEAKTNTFLLVAERWWNVKKTSVTEDYADDIWRSLERDIFPAIGDISITEIKAHTLVKAVQPVQARGALETVRRLCQRINEVMIYAQNTGLIDAVPSVNIGKAFEKPQKKNMPSIRPDQLPQLMHTMRTASISMSTRCLFMWQLLTITRPAEAAEARWDEIDFNASEWKIPAARMKMNRDHTVPLSDGALAILEMMKPLSGGREFIFPSRIKPNQPMNSQTVNAALKRAGLGGVLVSHGLRSIASTALNEEGFPPDVIEAALAHVDKNEVRRAYNRSDYLEQRRPMMQWWADLVKAADSGSIVLTHLSKIRLVG | soluble
MGDSTFLDRMLLQLRSTCKYYSGYPKDLGPSRVLHFTSEREFVQLLHQGYPVVVAFTIRSNYTQHLDRMLEEAAAEFYPNIKFMRVECPKYPGFCITRQKNEYPFIEIFHSPQHAGNEGKVQDPNITRYSVKVVPYNYDMSPYGFREFFKRQGVRTSDPK | not soluble
MTTTKANLTEFEQQLVDKAIGAMENAYCKYSNFKVGAALVCDDGEIIIGANHENASYGATICAERSAIVTALTKGHRKFKYIVVATELEAPCSPCGVCRQVLIEFGDYKVILGSSTSDQIIETTTYELLPYAFTPKSLDDHEKETEERKHHNDHNNKE | not soluble
MAHHHHNSGPLEFTVSANTNPATDAVRESILANPGFGKYYTDHMVSIDYTVDEGWHNAQVIPYGPIQLDPSAIVLHYGQEIFEGLKAYRWADGSIVSFRPEANAARLQSSARRLAIPELPEEVFIESLRQLIAVDEKWVPPAGGEESLYLRPFVIATEPGLGVRPSNEYRYLLIASPAGAYFKGGIKPVSVWLSHEYVRASPGGTGAAKFGGNYAASLLAQAQAAEMGCDQVVWLDAIERRYVEEMGGMNLFFVFGSGGSARLVTPELSGSLLPGITRDSLLQLATDAGFAVEERKIDVDEWQKKAGAGEITEVFACGTAAVITPVSHVKHHDGEFTIADGQPGEITMALRDTLTGIQRGTFADTHGWMARLN | soluble
